Data from patent publication US20130336924A1 (ALKERMES, published 2013).

T1: IL-6Rα on HEK-Blue IL-6 cells (human, UniProt P08887 20-468)
T1 sequence (looked up): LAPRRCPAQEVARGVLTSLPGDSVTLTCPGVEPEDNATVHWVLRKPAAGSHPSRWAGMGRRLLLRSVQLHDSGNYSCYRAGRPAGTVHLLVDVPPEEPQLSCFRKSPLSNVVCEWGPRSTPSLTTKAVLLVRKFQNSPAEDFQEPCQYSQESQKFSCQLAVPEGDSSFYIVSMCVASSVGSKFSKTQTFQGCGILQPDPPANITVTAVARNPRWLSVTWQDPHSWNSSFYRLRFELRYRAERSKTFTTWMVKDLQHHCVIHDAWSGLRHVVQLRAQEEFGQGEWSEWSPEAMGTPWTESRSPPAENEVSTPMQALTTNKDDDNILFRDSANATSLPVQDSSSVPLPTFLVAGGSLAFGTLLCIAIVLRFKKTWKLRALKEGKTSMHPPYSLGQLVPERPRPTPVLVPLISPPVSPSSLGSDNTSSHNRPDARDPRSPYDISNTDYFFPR

T2: gp130 on HEK-Blue IL-6 cells (human, UniProt P40189 23-918)
T2 sequence: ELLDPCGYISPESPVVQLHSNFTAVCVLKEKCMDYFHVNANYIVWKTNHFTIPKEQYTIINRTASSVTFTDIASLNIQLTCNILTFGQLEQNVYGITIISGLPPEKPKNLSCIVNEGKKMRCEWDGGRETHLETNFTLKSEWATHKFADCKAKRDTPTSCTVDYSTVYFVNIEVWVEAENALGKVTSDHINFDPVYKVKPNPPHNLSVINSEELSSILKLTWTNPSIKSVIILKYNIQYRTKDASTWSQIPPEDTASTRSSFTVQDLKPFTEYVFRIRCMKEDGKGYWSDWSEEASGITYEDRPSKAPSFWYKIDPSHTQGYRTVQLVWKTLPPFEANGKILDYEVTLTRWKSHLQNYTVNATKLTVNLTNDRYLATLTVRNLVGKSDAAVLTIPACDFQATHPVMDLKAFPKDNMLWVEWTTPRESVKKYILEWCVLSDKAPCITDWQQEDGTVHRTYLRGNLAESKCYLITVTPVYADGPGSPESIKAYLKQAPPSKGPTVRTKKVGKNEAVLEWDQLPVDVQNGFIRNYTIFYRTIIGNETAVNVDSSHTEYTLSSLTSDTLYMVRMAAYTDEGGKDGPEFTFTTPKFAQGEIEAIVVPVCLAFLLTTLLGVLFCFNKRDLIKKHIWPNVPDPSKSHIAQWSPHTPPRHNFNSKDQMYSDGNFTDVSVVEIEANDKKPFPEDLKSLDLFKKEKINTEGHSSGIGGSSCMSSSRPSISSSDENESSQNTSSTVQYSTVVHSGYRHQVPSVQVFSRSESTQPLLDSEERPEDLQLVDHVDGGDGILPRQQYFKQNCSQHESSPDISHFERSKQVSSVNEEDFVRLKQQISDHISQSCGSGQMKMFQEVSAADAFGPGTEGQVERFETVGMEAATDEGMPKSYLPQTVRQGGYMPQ

B1: RDB1503 (ligand)
chain: QNQWLQDMTTHLILRSFKEFLQSSLRALRQMSGGSGGGSSERIDKQIRYILDGISALRKETCNKSNMCESSKEALAENNLNLPKMAEKDGCFQSGFNEETCLVKIITGLLEFEVYLEYLQNRFESSEEQARAVQMSTKVLIQFLQKKAKNLDAITTPDPTTNASLLTKLQ

Key:
[1] = biological target: T1, IL-6Rα on HEK-Blue IL-6 cells; assay: cell-based or functional assay
[2] = biological target: T2, gp130 on HEK-Blue IL-6 cells; assay: cell-based or functional assay

Molecule | EC50, IL-6-induced SEAP reporter in HEK-Blue IL-6 cells (agonist activity) [1] [pM] | EC50, IL-6-induced SEAP reporter in HEK-Blue IL-6 cells (agonist activity) [2] [pM]
IL-6 (from UniProt P05231 30-212) (ligand) | 1 | 
B1 | ~0.6 | ~0.6
